Results published in paper PMC5497811 (Nature, 2017).
Values belong to the molecule of their own block, whether it stands above or below them.

B2: BT1763 (SusC-like), full-length, in freshly purified BT1762-1763 complex (natural protein, Bacteroides thetaiotaomicron, UniProt Q8A6W3 26-1041, looked up)
chain: GQNITVKGNVTSKTDGQPIIGASVVETTATTNGTITDFDGNFTLSVPVNSTLKITYIGYKPVTVKAAAIVNVLLEEDTQMVDEVVVTGYTTQRKADLTGAVSVVKVDEIQKQGENNPVKALQGRVPGMNITADGNPSGSATVRIRGIGTLNNNDPLYIIDGVPTKAGMHELNGNDIESIQVLKDAASASIYGSRAANGVIIITTKQGKKGQIKINFDASVSASMYQSKMNVLNTEQYGRAMWQAYVNDGENPNGNALGYAYNWGYNADGNPVLYGMTLSKYLDSKNTMPVADTDWFDEITRTGVIQQYNLSVSNGSEKGSSFFSLGYYKNLGVIKDTDFDRFSARMNSDYKLIDDILTIGQHFTLNRTSEVQAPGGIIETALDIPSAIPVYASDGSWGGPVGGWPDRRNPRAVLEYNKDNRYTYWRMFGDAYVNLTPFKGFNLRSTFGLDYANKQARYFTYPYQEGTQTNNGKSAVEAKQEHWTKWMWNAIATYQLEVGKHRGDVMIGMELNREDDSHFSGYKEDFSILTPDYMWPDAGSGTAQAYGAGEGYSLVSFFGKMNYSYADRYLLSLTLRRDGSSRFGKNHRYATFPSVSLGWRITQENFMKELTWLDDLKLRASWGQTGNQEISNLARYTIYAPNYGTTDSFGGQSYGTAYDITGSNGGGVLPSGFKRNQIGNDNIKWETTTQTNVGIDFSLFKQSLYGSLEYYYKKATDILTEMAGVGVLGEGGSRWINSGAMKNQGFEFNLGYRNKTAFGLTYDLNGNISTYRNEILELPETVAANGKFGGNGVKSVVGHTYGAQVGYIADGIFKSQDEVDNHATQEGAAVGRIRYRDIDHNGVIDERDQNWIYDPTPSFSYGLNIYLEYKNFDLTMFWQGVQGVDIISDVKKKSDFWSASNVGFLNKGTRLLNAWSPTNPNSDIPALTRSDTNNEQRVSTYFVENGSFLKLRNIQLGYTVPAVISKKMRMDRLRFYCSAQNLLTIKSKNFTGEDPENPNFSYPIPVNITFGLNIGF

Key:
[1] = target: BT2264 (SusC-like TonB-dependent transporter) (Bacteroides thetaiotaomicron); experiment: crystal structure
[2] = target: B2; experiment: SDS-PAGE of non-boiled samples
native MS = target: the molecule itself; experiment: native MS

stoichiometry N [1]: 2
Molecule: BT2264 (SusC-like TonB-dependent transporter) (natural protein)

binding result [2]: binds
B1: BT1762 (SusD-like) with C-terminal 4xAla linker and 6xHis-tag, native from B. theta (natural protein, Bacteroides thetaiotaomicron, UniProt Q8A6W4 19-570, looked up)
chain: CDDFLDRQVPQGIVTGDQIASPEYVDNLVISAYAIWATGDDINSSFSLWNYDVRSDDCYKGGSGTEDGGVFNALEISKGINTTDWNINDIWKRLYQCITRANTALQSLDQMDEKTYPLKNQRIAEMRFLRGHAHFMLKQLFKKIVIVNDENMEPDAYNELSNTTYTNDEQWQKIADDFQFAYDNLPEVQIEKGRPAQAAAAAYLAKTYLYKAYRQDGADNALTGINEEDLKQVVKYTDPLIMAKGGYGLETDYSMNFLPQYENGAESVWAIQYSINDGTYNGNLNWGMGLTTPQILGCCDFHKPSQNLVNAFKTDSQGKPLFSTYDNENYEVATDNVDPRLFHTVGMPGFPYKYNEGYIIQKNDDWSRSKGLYGYYVSLKENVDPDCDCLKKGSYWASSLNHIVIRYADVLLMRAEALIQLNDGRITDAISLINEVRSRAAGSTMLIFNYKEDYGVNFKVTPYDLKAYAQDEAMKMLKWERRVEFGMESSRFFDLVRWGEAKDVINAYYVTEASRCSIYKNAGFTENKNEYLPVPFEQISASNGNYTQNFGW

Molecule: B2
stoichiometry N (native MS): 2
